Assay results: the supplement of paper PMC10567573

B1: CCDC6 (parent)
chain: ASVTIQARAEQEEEFISNTLFKKI

Variants of: B1
Experiment: protein stability index of a GFP-peptide fusion (GPS, HEK-293T) (PSI 1-6); higher = more stable
Details: c terminus: a fixed tail appended
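Also: lentivirally expressed fusions sorted by FACS into six bins by GFP to DsRed ratio, PSI derived from sequencing read proportions per bin multiplied by bin number.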

Protein stability index of substitutions, site by site:
I16: T 3.95, P 4.35, E 4.53, K 4.53, S 4.25, G 4.43, R 3.92, F 3.49, V 4.05, W 2.92, D 4.34, N 4.57, H 4.28, Q 4.66, Y 3.42, L 3.94, M 3.82
F21: W 3.39, C 4.76, H 3.88, Q 5.01, P 4.52, V 4.39, R 4.54, I 3.58, M 4.46, L 4.78, T 4.49, S 4.37, A 4.66, E 4.93, D 4.87, K 4.7, G 4.71, N 4.42, Y 3.72
K22: S 3.64, P 4.13, G 3.49, E 3.74, R 2.92, Q 3.7, M 1.74, N 3.98, H 3.5, C 2.17, A 2.87, V 1.91, D 3.49, L 2.19, F 1.94, T 2.86, Y 2.21, W 2.1
N18: M 2.34, A 3.27, K 3.87, T 3.75, G 3.6, F 2.27, C 2.79, V 1.5, P 3.96, W 2.43, Q 3.42, E 4.09, R 3.07, Y 2.07, L 2.56, S 3.54, D 4.34, H 3.41
I24: Q 4.36, V 3.71, M 3.83, Y 3.56, P 4.25, C 4.52, R 4.03, D 4.85, E 4.58, S 4.17, T 4.76, K 4.8, L 4.23, W 3.59, N 4.71, H 4.37, G 4.48, A 4.14, F 3.66
K23: T 3.34, C 2.96, A 3.23, M 2.35, R 3.28, G 3.21, Y 1.98, Q 3.17, W 2.23, S 3.04, I 2.52, L 2.11, P 3.19, H 3.08, V 2.73, N 3.37, E 3.89, D 3.21, F 2.01
S17: R 3.26, L 3.35, F 2.98, V 3.18, P 3.92, D 4.38, K 4.03, G 3.5, H 3.58, E 3.9, I 2.85, A 3.64, C 2.8, T 4.27, N 3.59, W 2.54, M 3.06, Q 3.77, Y 2.9
T19: L 2.82, V 3.21, H 3.36, E 3.81, P 4, R 3.84, S 3.47, K 3.72, F 2.72, Q 3.86, D 3.77, I 2.94, G 4.04, C 3.25, Y 2.96, A 3.49, M 3.03, N 3.12, W 3.13
L20: A 3.94, I 3.89, H 4, N 4.42, E 4.51, S 4.68, Q 4.62, R 4.09, C 3.9, V 3.82, F 3.46, M 4.44, T 4.64, P 4.14, G 4.66, D 4.76, W 2.91, Y 3.69, K 4.15
